Test results reported in ChEMBL document CHEMBL2073952, “Na(+)-coupled transport of L-carnitine via high-affinity carnitine transporter OCTN2 and its subcellular localization in kidney” (Biochim Biophys Acta, 2001).

Substrate: C[N+](C)(C)CC(O)CC(=O)[O-]
Test: TP_TRANSPORTER: uptake in membrane vesicle from OCTN2-expressing HEK 293 cell
Format: functional, cell membranes, HEK293

B1: Organic cation/carnitine transporter 2 (Homo sapiens) (protein)
chain: MRDYDEVTAFLGEWGPFQRLIFFLLSASIIPNGFTGLSSVFLIATPEHRCRVPDAANLSSAWRNHTVPLRLRDGREVPHSCRRYRLATIANFSALGLEPGRDVDLGQLEQESCLDGWEFSQDVYLSTIVTEWNLVCEDDWKAPLTISLFFVGVLLGSFISGQLSDRFGRKNVLFVTMGMQTGFSFLQIFSKNFEMFVVLFVLVGMGQISNYVAAFVLGTEILGKSVRIIFSTLGVCIFYAFGYMVLPLFAYFIRDWRMLLVALTMPGVLCVALWWFIPESPRWLISQGRFEEAEVIIRKAAKANGIVVPSTIFDPSELQDLSSKKQQSHNILDLLRTWNIRMVTIMSIMLWMTISVGYFGLSLDTPNLHGDIFVNCFLSAMVEVPAYVLAWLLLQYLPRRYSMATALFLGGSVLLFMQLVPPDLYYLATVLVMVGKFGVTAAFSMVYVYTAELYPTVVRNMGVGVSSTASRLGSILSPYFVYLGAYDRFLPYILMGSLTILTAILTLFLPESFGTPLPDTIDQMLRVKGMKHRKTPSHTRMLKDGQERPTILKSTAF
Km: 2.66 µM
